Laboratory results published in paper PMC9463131, “SLITRK1-mediated noradrenergic projection suppression in the neonatal prefrontal cortex” (Communications Biology, 2022).
Numbering of substitutions follows the chain as printed.

T1: SLITRK1-S330A-Fc (human, UniProt Q96PX8 18-616, S330A)
T1 sequence: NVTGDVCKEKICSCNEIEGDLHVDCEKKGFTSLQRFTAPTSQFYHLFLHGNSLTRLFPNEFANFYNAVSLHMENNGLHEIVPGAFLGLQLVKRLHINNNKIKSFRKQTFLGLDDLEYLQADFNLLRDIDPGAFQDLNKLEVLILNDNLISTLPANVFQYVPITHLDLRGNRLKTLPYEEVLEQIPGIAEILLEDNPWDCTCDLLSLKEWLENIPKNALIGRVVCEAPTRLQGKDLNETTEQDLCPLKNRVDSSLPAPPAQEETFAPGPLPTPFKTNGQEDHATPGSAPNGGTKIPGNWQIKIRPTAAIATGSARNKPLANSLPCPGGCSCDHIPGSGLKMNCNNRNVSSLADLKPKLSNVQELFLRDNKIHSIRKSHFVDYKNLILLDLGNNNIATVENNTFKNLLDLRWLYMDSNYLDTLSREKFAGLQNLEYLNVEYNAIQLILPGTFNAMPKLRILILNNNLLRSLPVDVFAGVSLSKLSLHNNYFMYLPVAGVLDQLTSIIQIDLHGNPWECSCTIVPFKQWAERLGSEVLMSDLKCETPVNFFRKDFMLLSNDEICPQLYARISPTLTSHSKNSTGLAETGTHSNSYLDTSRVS

T2: SLITRK1-A444S-Fc (human, UniProt Q96PX8 18-616, A444S)
T2 sequence: T1 sequence with A313S, A427S

T3: SLITRK1 ECD-immunoglobulin Fc domain-fusion protein (SLITRK1-WT-Fc) (human, UniProt Q96PX8 18-616)
T3 construct: signal peptide in the construct; human SLITRK1 extracellular domain, amino acid number 1-616 in NP_443142; also called SLITRK1 ECD-Fc; SLITRK1 ECD-Fc fusion protein
T3 sequence (looked up): T1 sequence with A313S

T4: SLITRK1-S330A-Fc (human, UniProt Q96PX8 18-616, S330A)
T4 construct: signal peptide in the construct; human SLITRK1 extracellular domain, amino acid number 1-616 in NP_443142, with the patient-derived variant S330A; S330A is a variant found in patients and controls (global MAF 0.002); made by site-directed mutagenesis; also called SLITRK1 ECD-Fc S330A
T4 sequence (looked up): T1 sequence

T5: SLITRK1-A444S-Fc (human, UniProt Q96PX8 18-616, A444S)
T5 construct: signal peptide in the construct; human SLITRK1 extracellular domain, amino acid number 1-616 in NP_443142, with the patient-derived variant A444S; A444S was found in 2 of 364 patients with bipolar disorder; made by site-directed mutagenesis; also called SLITRK1 ECD-Fc A444S
T5 sequence (looked up): T1 sequence with A313S, A427S

B1: human Neurofascin ECD-His6 (8208-NF-050, R&D Systems) (domain or fragment)
chain: IEIPMDLTQPPTITKQSAKDHIVDPRDNILIECEAKGNPAPSFHWTRNSRFFNIAKDPRVSMRRRSGTLVIDFRSGGRPEEYEGEYQCFARNKFGTALSNRIRLQVSKSPLWPKENLDPVVVQEGAPLTLQCNPPPGLPSPVIFWMSSSMEPITQDKRVSQGHNGDLYFSNVMLQDMQTDYSCNARFHFTHTIQQKNPFTLKVLTNHPYNDSSLRNHPDMYSARGVAERTPSFMYPQGTASSQMVLRGMDLLLECIASGVPTPDIAWYKKGGDLPSDKAKFENFNKALRITNVSEEDSGEYFCLASNKMGSIRHTISVRVKAAPYWLDEPKNLILAPGEDGRLVCRANGNPKPTVQWMVNGEPLQSAPPNPNREVAGDTIIFRDTQISSRAVYQCNTSNEHGYLLANAFVSVLDVPPRMLSPRNQLIRVILYNRTRLDCPFFGSPIPTLRWFKNGQGSNLDGGNYHVYENGSLEIKMIRKEDQGIYTCVATNILGKAENQVRLEVKDPTRIYRMPEDQVARRGTTVQLECRVKHDPSLKLTVSWLKDDEPLYIGNRMKKEDDSLTIFGVAERDQGSYTCVASTELDQDLAKAYLTVLGRPDRPRDLELTDLAERSVRLTWIPGDANNSPITDYVVQFEEDQFQPGVWHDHSKYPGSVNSAVLRLSPYVNYQFRVIAINEVGSSHPSLPSERYRTSGAPPESNPGDVKGEGTRKNNMEITWTPMNATSAFGPNLRYIVKWRRRETREAWNNVTVWGSRYVVGQTPVYVPYEIRVQAENDFGKGPEPESVIGYSGEDYPRAAPTEVKVRVMNSTAISLQWNRVYSDTVQGQLREYRAYYWRESSLLKNLWVSQKRQQASFPGDRLRGVVSRLFPYSNYKLEMVVVNGRGDGPRSETKEFTTPEGVPSAPRRFRVRQPNLETINLEWDHPEHPNGIMIGYTLKYVAFNGTKVGKQIVENFSPNQTKFTVQRTDPVSRYRFTLSARTQVGSGEAVTEESPAPPNEAYTNNQADIATQGW
B2: L1CAM ECD-His6 (777-NC-100, R&D Systems) (domain or fragment)
chain: IQIPEEYEGHHVMEPPVITEQSPRRLVVFPTDDISLKCEASGKPEVQFRWTRDGVHFKPKEELGVTVYQSPHSGSFTITGNNSNFAQRFQGIYRCFASNKLGTAMSHEIRLMAEGAPKWPKETVKPVEVEEGESVVLPCNPPPSAEPLRIYWMNSKILHIKQDERVTMGQNGNLYFANVLTSDNHSDYICHAHFPGTRTIIQKEPIDLRVKATNSMIDRKPRLLFPTNSSSHLVALQGQPLVLECIAEGFPTPTIKWLRPSGPMPADRVTYQNHNKTLQLLKVGEEDDGEYRCLAENSLGSARHAYYVTVEAAPYWLHKPQSHLYGPGETARLDCQVQGRPQPEVTWRINGIPVEELAKDQKYRIQRGALILSNVQPSDTMVTQCEARNRHGLLLANAYIYVVQLPAKILTADNQTYMAVQGSTAYLLCKAFGAPVPSVQWLDEDGTTVLQDERFFPYANGTLGIRDLQANDTGRYFCLAANDQNNVTIMANLKVKDATQITQGPRSTIEKKGSRVTFTCQASFDPSLQPSITWRGDGRDLQELGDSDKYFIEDGRLVIHSLDYSDQGNYSCVASTELDVVESRAQLLVVGSPGPVPRLVLSDLHLLTQSQVRVSWSPAEDHNAPIEKYDIEFEDKEMAPEKWYSLGKVPGNQTSTTLKLSPYVHYTFRVTAINKYGPGEPSPVSETVVTPEAAPEKNPVDVKGEGNETTNMVITWKPLRWMDWNAPQVQYRVQWRPQGTRGPWQEQIVSDPFLVVSNTSTFVPYEIKVQAVNSQGKGPEPQVTIGYSGEDYPQAIPELEGIEILNSSAVLVKWRPVDLAQVKGHLRGYNVTYWREGSQRKHSKRHIHKDHVVVPANTTSVILSGLRPYSSYHLEVQAFNGRGSGPASEFTFSTPEGVPGHPEALHLECQSNTSLLLRWQPPLSHNGVLTGYVLSYHPLDEGGKGQLSFNLRDPELRTHNLTDLSPHLRYRFQLQATTKEGPGEAIVREGGTMALSGISDFGNISATAGENYSVVSWVPKEGQCNFRFHILFKALGEEKGGASLSPQYVSYNQSSYTQWDLQPDTDYEIHLFKERMFRHQMAVKTNGTGRVRLPPAGFATE

Experiments:
SLITRK1-S330A-Fc [1] = target: T1, SLITRK1-S330A-Fc; assay: BLI
SLITRK1-A444S-Fc [2] = target: T2, SLITRK1-A444S-Fc; assay: BLI
[3] = target: T3, SLITRK1 ECD-immunoglobulin Fc …; assay: quartz crystal microbalance; AffinixQ, 27 MHz; about 200 femtomoles SLITRK1 ECD-Fc (WT, S330A or A444S) immobilised through anti-human IgG Fc on the gold resonator; ECD-His6 proteins added at several concentrations; 50 mM Tris-HCl pH 7.6, 15 mM NaCl, 140 mM KCl, 0.5 mM MgCl2, 2 mM CaCl2; 25 ± 1 °C; KD = koff/kon; details: both partners purified
SLITRK1-S330A-Fc [4] = target: T4, SLITRK1-S330A-Fc; assay: as above; details: both partners purified
SLITRK1-A444S-Fc [5] = target: T5, SLITRK1-A444S-Fc; assay: as above; details: both partners purified
SLITRK1-S330A-Fc [6] = target: T1, SLITRK1-S330A-Fc; assay: BLI; remark: listed apart in the source
SLITRK1-A444S-Fc [7] = target: T2, SLITRK1-A444S-Fc; assay: BLI; remark: listed apart in the source

Binder	koff (SLITRK1-S330A-Fc [1]) [s⁻¹]	koff (SLITRK1-A444S-Fc [2]) [s⁻¹]	Kd [3] [nM]	Kd (SLITRK1-S330A-Fc [4]) [nM]	Kd (SLITRK1-A444S-Fc [5]) [nM]	Kd (SLITRK1-S330A-Fc [6]) [nM]	Kd (SLITRK1-A444S-Fc [7]) [nM]
B1	0.00665	0.00577	16.6	59.3	14.2		
B2	0.00084	0.0008				5.83	4.69
